# Measurements taken from patent US20160090425.
# B1: human C1s enzyme purified from human plasma (Complement Technology Inc., Cat # A103) (protein)
# chain: EPTMYGEILSPNYPQAYPSEVEKSWDIEVPEGYGIHLYFTHLDIELSENCAYDSVQIISGDTEEGRLCGQRSSNNPHSPIVEEFQVPYNKLQVIFKSDFSNEERFTGFAAYYVATDINECTDFVDVPCSHFCNNFIGGYFCSCPPEYFLHDDMKNCGVNCSGDVFTALIGEIASPNYPKPYPENSRCEYQIRLEKGFQVVVTLRREDFDVEAADSAGNCLDSLVFVAGDRQFGPYCGHGFPGPLNIETKSNALDIIFQTDLTGQKKGWKLRYHGDPMPCPKEDTPNSVWEPAKAKYVFRDVVQITCLDGFEVVEGRVGATSFYSTCQSNGKWSNSKLKCQPVDCGIPESIENGKVEDPESTLFGSVIRYTCEEPYYYMENGGGGEYHCAGNGSWVNEVLGPELPKCVPVCGVPREPFEEKQRIIGGSDADIKNFPWQVFFDNPWAGGALINEYWVLTAAHVVEGNREPTMYVGSTSVQTSRLAKSKMLTPEHVFIHPGWKLLEVPEGRTNFDNDIALVRLKDPVKMGPTVSPICLPGTSSDYNLMDGDLGLISGWGRTEKRDRAVRLKAARLPVAPLRKCKEVKVEKPTADAEAYVFTPNMICAGGEKGMDSCKGDSGGAFAVQDPNDKTKFYAAGLVSWGPQCGTYGLYTRVKNYVDWIMKTMQENSTPRED
# Target: six other anti-C1s binding antibodies
protein,measurement,value
B1,"C1s-mediated C4 α-chain cleavage (SDS gel), antibody at approximately 10-fold molar excess","six other anti-C1s binding antibodies, including the C1s binding antibody 3F8 (see FIG. 1, Example 2), did not show inhibitory activity"
